Experiments:
[1] = target: porcine FcRn complex (porcine) (UniProt Q07717); assay: SPR (Biacore 8K+), pH 5.9, 25 C; FcRn captured by anti-His, IgG as analyte; steady state affinity
[2] = target: ovine FcRn complex (ovine) (UniProt Q6QAT4); assay: as above
[3] = target: ovine FcRn complex (ovine) (UniProt Q6QAT4); assay: SPR (Biacore 8K+), pH 5.9, 25 C; FcRn captured by anti-His, IgG as analyte; 1:1 kinetic model
[4] = target: bovine FcRn complex (bovine) (UniProt F6R592); assay: as above
Sequence of bovine FcRn complex (bovine) (chain, as listed by the source, chain 1 of 2): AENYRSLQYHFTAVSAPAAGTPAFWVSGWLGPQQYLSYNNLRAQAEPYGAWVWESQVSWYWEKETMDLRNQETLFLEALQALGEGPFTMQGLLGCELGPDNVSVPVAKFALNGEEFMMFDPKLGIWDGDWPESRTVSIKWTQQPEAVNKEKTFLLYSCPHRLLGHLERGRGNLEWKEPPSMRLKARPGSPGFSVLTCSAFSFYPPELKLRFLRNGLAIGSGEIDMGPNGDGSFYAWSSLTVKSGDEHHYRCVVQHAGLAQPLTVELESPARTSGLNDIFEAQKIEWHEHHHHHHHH
Sequence of bovine FcRn complex (bovine) (P01888 other isoform, or with tags, fused parts or gaps, chain 2 of 2): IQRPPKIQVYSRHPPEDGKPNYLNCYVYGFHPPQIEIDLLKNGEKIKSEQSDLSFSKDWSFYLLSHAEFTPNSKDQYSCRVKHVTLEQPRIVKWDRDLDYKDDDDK

Sequence of ovine FcRn complex (ovine) (main, as listed by the source, chain 1 of 2): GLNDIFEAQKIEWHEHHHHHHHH
Sequence of ovine FcRn complex (ovine) (Q6QAT4 other isoform, or with tags, fused parts or gaps, chain 2 of 2): as the sequence (P01888 other isoform, or with tags, fused parts or gaps, chain 2 of 2) above, with P4I, K6E, I7V, K82N, E87T, R90K counted along it
Sequence of porcine FcRn complex (porcine) (Q07717 other isoform, or with tags, fused parts or gaps, chain 2 of 2): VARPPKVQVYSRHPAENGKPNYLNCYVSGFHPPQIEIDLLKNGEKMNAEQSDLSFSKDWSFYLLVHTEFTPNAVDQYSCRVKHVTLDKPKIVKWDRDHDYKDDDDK

Row | Binder | Fold increase over wild-type KD [3] [fold] | Kd [3] [nM] | also measured
1 | Porcine wild-type (antibody, part only; not given: variable domains and light chain, IgG1a, not shown: another chain or arm of the molecule) Fc: GCEVAGPSVFIFPPKPKDTLMISQTPEVTCVVVDVSKEHAEVQFSWYVDGVEVHTAETRPKEEQFNSTYRVVSVLPIQHQDWLKGKEFKCKVNNVDLPAPITRTISKAIGQSREPQVYTLPPPAEELSRSKVTVTCLVIGFYPPDIHVEWKSNGQPEPEGNYRTTPPQQDVDGTFFLYSKLAVDKARWDHGETFECAVMHEALHNHYTQKSISKTQGK |  |  | Fold increase over wild-type KD [1]: 1 fold
2 | Ovine wild-type (antibody, part only; not given: variable domains and light chain, IgG1, not shown: another chain or arm of the molecule) Fc: PELPGGPSVFIFPPKPKDTLTISGTPEVTCVVVDVGQDDPEVQFSWFVDNVEVRTARTKPREEQFNSTFRVVSALPIQHQDWTGGKEFKCKVHNEALPAPIVRTISRTKGQAREPQVYVLAPPQEELSKSTLSVTCLVTGFYPDYIAVEWQKNGQPESEDKYGTTTSQLDADGSYFLYSRLRVDKNSWQEGDTYACVVMHEALHNHYTQKSISKPPGK |  |  | Fold increase over wild-type KD [2]: 1 fold
3 | Ovine Q309V (antibody, part only; not given: variable domains and light chain, IgG1, not shown: another chain or arm of the molecule) Fc: PELPGGPSVFIFPPKPKDTLTISGTPEVTCVVVDVGQDDPEVQFSWFVDNVEVRTARTKPREEQFNSTFRVVSALPIVHQDWTGGKEFKCKVHNEALPAPIVRTISRTKGQAREPQVYVLAPPQEELSKSTLSVTCLVTGFYPDYIAVEWQKNGQPESEDKYGTTTSQLDADGSYFLYSRLRVDKNSWQEGDTYACVVMHEALHNHYTQKSISKPPGK | 6.3 | 79.3 | 
4 | Ovine N434Y (antibody, part only; not given: variable domains and light chain, IgG1, not shown: another chain or arm of the molecule) Fc: PELPGGPSVFIFPPKPKDTLTISGTPEVTCVVVDVGQDDPEVQFSWFVDNVEVRTARTKPREEQFNSTFRVVSALPIQHQDWTGGKEFKCKVHNEALPAPIVRTISRTKGQAREPQVYVLAPPQEELSKSTLSVTCLVTGFYPDYIAVEWQKNGQPESEDKYGTTTSQLDADGSYFLYSRLRVDKNSWQEGDTYACVVMHEALHYHYTQKSISKPPGK | 81 | 6.09 | 
5 | Ovine M428Y (antibody, part only; not given: variable domains and light chain, IgG1, not shown: another chain or arm of the molecule) Fc: PELPGGPSVFIFPPKPKDTLTISGTPEVTCVVVDVGQDDPEVQFSWFVDNVEVRTARTKPREEQFNSTFRVVSALPIQHQDWTGGKEFKCKVHNEALPAPIVRTISRTKGQAREPQVYVLAPPQEELSKSTLSVTCLVTGFYPDYIAVEWQKNGQPESEDKYGTTTSQLDADGSYFLYSRLRVDKNSWQEGDTYACVVYHEALHNHYTQKSISKPPGK | 3 | 166 | 
6 | Bovine N434Y (antibody, part only; not given: variable domains and light chain, IgG1, not shown: another chain or arm of the molecule) Fc: PPELPGGPSVFIFPPKPKDTLTISGTPEVTCVVVDVGHDDPEVKFSWFVDNVEVNTATTKPREEQFNSTYRVVSALRIQHQDWTGGKEFKCKVHNEGLPAPIVRTISRTKGPAREPQVYVLAPPQEELSKSTVSLTCMVTSFYPDYIAVEWQRNGQPESEDKYGTTPPQLDADSSYFLYSKLRVDRNSWQEGDTYTCVVMHEALHYHYTQKSTSKSA |  |  | Fold increase over wild-type KD [4]: 42 fold; Kd [4]: 11.9 nM
7 | Bovine Y436H (antibody, part only; not given: variable domains and light chain, IgG1, not shown: another chain or arm of the molecule) Fc: PPELPGGPSVFIFPPKPKDTLTISGTPEVTCVVVDVGHDDPEVKFSWFVDNVEVNTATTKPREEQFNSTYRVVSALRIQHQDWTGGKEFKCKVHNEGLPAPIVRTISRTKGPAREPQVYVLAPPQEELSKSTVSLTCMVTSFYPDYIAVEWQRNGQPESEDKYGTTPPQLDADSSYFLYSKLRVDRNSWQEGDTYTCVVMHEALHNHHTQKSTSKSA |  |  | Fold increase over wild-type KD [4]: 2.3 fold; Kd [4]: 224 nM

Continued, in another order:

Row | Fold increase over wild-type KD [3] [fold] | Kd [3] [nM] | Binder | also measured
8 | 11 | 43.1 | Ovine T252Y (antibody, part only; not given: variable domains and light chain, IgG1, not shown: another chain or arm of the molecule) Fc: PELPGGPSVFIFPPKPKDTLYISGTPEVTCVVVDVGQDDPEVQFSWFVDNVEVRTARTKPREEQFNSTFRVVSALPIQHQDWTGGKEFKCKVHNEALPAPIVRTISRTKGQAREPQVYVLAPPQEELSKSTLSVTCLVTGFYPDYIAVEWQKNGQPESEDKYGTTTSQLDADGSYFLYSRLRVDKNSWQEGDTYACVVMHEALHNHYTQKSISKPPGK | 
9 | 5.4 | 92.7 | Ovine Q311V (antibody, part only; not given: variable domains and light chain, IgG1, not shown: another chain or arm of the molecule) Fc: PELPGGPSVFIFPPKPKDTLTISGTPEVTCVVVDVGQDDPEVQFSWFVDNVEVRTARTKPREEQFNSTFRVVSALPIQHVDWTGGKEFKCKVHNEALPAPIVRTISRTKGQAREPQVYVLAPPQEELSKSTLSVTCLVTGFYPDYIAVEWQKNGQPESEDKYGTTTSQLDADGSYFLYSRLRVDKNSWQEGDTYACVVMHEALHNHYTQKSISKPPGK | 

— patent US20220177549A1
